System: Escherichia coli TOP10
Test: shrunken log2 fold change of peptide-encoding DNA abundance (4.5 h post-induction vs induction); higher = less antimicrobial activity (less host growth inhibition)
Details: time post-induction: 4.5 h; library: site-saturation at positions 5, 18, 19, 20
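Also: peptides expressed intracellularly from a pBAD plasmid library in pooled LB shake-flask culture, induced with 0.3% L-arabinose, DNA abundance read by NGS, three biological replicates, DESeq2 with apeglm shrinkage.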

| Sequence | shrunken log2 fold change |
| --- | --- |
| RRIRERPPRLPRPRPRPWAVPRP | -0.0984 |
| RRIRCRPPRLPRPRPRPVIWPRP | 0.0816 |
| RRIRMRPPRLPRPRPRPFSVPRP | -0.0472 |
| RRIRARPPRLPRPRPRPVYRPRP | 0.144 |
| RRIRPRPPRLPRPRPRPCEHPRP | 0.099 |
| RRIRIRPPRLPRPRPRPFFTPRP | -0.312 |
| RRIRPRPPRLPRPRPRPCSDPRP | -0.131 |
| RRIRGRPPRLPRPRPRPQERPRP | 0.595 |
| RRIRWRPPRLPRPRPRPLHCPRP | -0.444 |
| RRIRRRPPRLPRPRPRPLPRPRP | 0.748 |
| RRIRWRPPRLPRPRPRPGVCPRP | 0.681 |
| RRIRVRPPRLPRPRPRPCKFPRP | 0.01 |
| RRIRQRPPRLPRPRPRPGGIPRP | 0.0484 |
| RRIRLRPPRLPRPRPRPSTIPRP | -0.246 |
| RRIRDRPPRLPRPRPRPEREPRP | -0.0248 |
| RRIRDRPPRLPRPRPRPELMPRP | 1.68 |
| RRIRPRPPRLPRPRPRPQPEPRP | 0.47 |
| RRIRERPPRLPRPRPRPSMWPRP | -0.0377 |
| RRIRFRPPRLPRPRPRPIERPRP | 0.116 |
| RRIRARPPRLPRPRPRPTVRPRP | 0.302 |
| RRIRKRPPRLPRPRPRPSGFPRP | 0.161 |
| RRIRSRPPRLPRPRPRPMRGPRP | 0.944 |
| RRIRARPPRLPRPRPRPSPKPRP | 0.303 |
| RRIRLRPPRLPRPRPRPTWIPRP | 0.0209 |
| RRIRFRPPRLPRPRPRPCKRPRP | 0.0187 |

| Sequence | shrunken log2 fold change |
| --- | --- |
| RRIRLRPPRLPRPRPRPFHSPRP | -0.177 |
| RRIRTRPPRLPRPRPRPTEDPRP | 0.196 |
| RRIRRRPPRLPRPRPRPGMNPRP | 0.00468 |
| RRIRMRPPRLPRPRPRPKFRPRP | 0.169 |
| RRIRVRPPRLPRPRPRPMIVPRP | 0.109 |
| RRIRYRPPRLPRPRPRPHHQPRP | -1.06 |
| RRIRDRPPRLPRPRPRPTKGPRP | 0.0341 |
| RRIRHRPPRLPRPRPRPYGPPRP | -0.311 |
| RRIRCRPPRLPRPRPRPMDVPRP | -0.00136 |
| RRIRCRPPRLPRPRPRPEWMPRP | -0.0041 |
| RRIRMRPPRLPRPRPRPLARPRP | 0.659 |
| RRIRLRPPRLPRPRPRPLHLPRP | -0.21 |
| RRIRMRPPRLPRPRPRPVCCPRP | 0.496 |
| RRIRNRPPRLPRPRPRPVRLPRP | 0.0814 |
| RRIRERPPRLPRPRPRPAKWPRP | 0.0478 |
| RRIRLRPPRLPRPRPRPCNYPRP | -0.593 |
| RRIRWRPPRLPRPRPRPCKKPRP | 0.0155 |
| RRIRQRPPRLPRPRPRPFNYPRP | -0.304 |
| RRIRHRPPRLPRPRPRPWEAPRP | -0.0553 |
| RRIRHRPPRLPRPRPRPCPAPRP | -0.231 |
| RRIRFRPPRLPRPRPRPCWHPRP | -0.259 |
| RRIRARPPRLPRPRPRPCSKPRP | 0.0365 |
| RRIRPRPPRLPRPRPRPHVHPRP | -0.254 |
| RRIRERPPRLPRPRPRPDHRPRP | -0.00204 |
| RRIRTRPPRLPRPRPRPIWRPRP | -0.111 |

| Sequence | shrunken log2 fold change |
| --- | --- |
| RRIRERPPRLPRPRPRPVYAPRP | -0.288 |
| RRIRMRPPRLPRPRPRPHHIPRP | -0.165 |
| RRIRHRPPRLPRPRPRPIKDPRP | -0.299 |
| RRIRMRPPRLPRPRPRPREHPRP | 0.402 |
| RRIRLRPPRLPRPRPRPRKKPRP | 0.355 |
| RRIRVRPPRLPRPRPRPRWTPRP | -0.142 |
| RRIRIRPPRLPRPRPRPSPYPRP | -0.396 |
| RRIRDRPPRLPRPRPRPRWMPRP | -0.176 |
| RRIRQRPPRLPRPRPRPFLMPRP | -0.421 |
| RRIRARPPRLPRPRPRPYPSPRP | -0.0433 |
| RRIRARPPRLPRPRPRPDTPPRP | 0.331 |
| RRIRFRPPRLPRPRPRPTARPRP | 0.336 |
| RRIRLRPPRLPRPRPRPEHRPRP | 0.283 |
| RRIRTRPPRLPRPRPRPAFMPRP | -0.0227 |
| RRIRQRPPRLPRPRPRPDILPRP | -0.0607 |
| RRIRRRPPRLPRPRPRPEKDPRP | 0.0399 |
| RRIRTRPPRLPRPRPRPPKYPRP | -0.103 |
| RRIRQRPPRLPRPRPRPLAFPRP | -0.232 |
| RRIRDRPPRLPRPRPRPYKPPRP | -0.0448 |
| RRIRGRPPRLPRPRPRPWAGPRP | 0.188 |
| RRIRSRPPRLPRPRPRPDKLPRP | -0.266 |
| RRIRRRPPRLPRPRPRPKFSPRP | 0.0704 |
| RRIRFRPPRLPRPRPRPPIHPRP | -0.255 |
| RRIRRRPPRLPRPRPRPTDIPRP | -0.771 |
| RRIRARPPRLPRPRPRPFVKPRP | 0.0302 |

| Sequence | shrunken log2 fold change |
| --- | --- |
| RRIRIRPPRLPRPRPRPAYTPRP | -1.41 |
| RRIRERPPRLPRPRPRPTWRPRP | 0.268 |
| RRIRHRPPRLPRPRPRPLVFPRP | -0.29 |
| RRIRERPPRLPRPRPRPKREPRP | 0.118 |
| RRIRNRPPRLPRPRPRPVLGPRP | 0.00359 |
| RRIRTRPPRLPRPRPRPIWWPRP | 0.261 |
| RRIRWRPPRLPRPRPRPGCNPRP | -0.0626 |
| RRIRFRPPRLPRPRPRPHASPRP | -0.259 |
| RRIRRRPPRLPRPRPRPPWPPRP | 0.667 |
| RRIRHRPPRLPRPRPRPHMFPRP | -0.358 |
| RRIRIRPPRLPRPRPRPRVDPRP | 0.061 |
| RRIRWRPPRLPRPRPRPFGAPRP | 0.197 |
| RRIRSRPPRLPRPRPRPCAGPRP | -0.0708 |
| RRIRDRPPRLPRPRPRPWCMPRP | -1 |
| RRIRYRPPRLPRPRPRPFSRPRP | -0.625 |
| RRIRKRPPRLPRPRPRPAMAPRP | 0.664 |
| RRIRIRPPRLPRPRPRPHKGPRP | -0.145 |
| RRIRYRPPRLPRPRPRPVQRPRP | -0.0294 |
| RRIRHRPPRLPRPRPRPPRMPRP | 0.284 |
| RRIRGRPPRLPRPRPRPEDTPRP | 1.58 |
| RRIRNRPPRLPRPRPRPMSPPRP | -0.000685 |
| RRIRSRPPRLPRPRPRPDKSPRP | -0.2 |
| RRIRHRPPRLPRPRPRPVFHPRP | -0.345 |
| RRIRDRPPRLPRPRPRPYGIPRP | -0.00973 |
| RRIRRRPPRLPRPRPRPAHSPRP | 0.384 |

| Sequence | shrunken log2 fold change |
| --- | --- |
| RRIRYRPPRLPRPRPRPANVPRP | -0.00291 |
| RRIRWRPPRLPRPRPRPASCPRP | 0.241 |
| RRIRKRPPRLPRPRPRPSHVPRP | 0.164 |
| RRIRARPPRLPRPRPRPVTCPRP | 0.0514 |
| RRIRRRPPRLPRPRPRPHRNPRP | -0.317 |
| RRIRHRPPRLPRPRPRPASWPRP | 0.305 |
| RRIRIRPPRLPRPRPRPVWPPRP | 0.0939 |
| RRIRIRPPRLPRPRPRPMFGPRP | -0.0865 |
| RRIRDRPPRLPRPRPRPQNRPRP | -0.28 |
| RRIRPRPPRLPRPRPRPGCLPRP | 0.339 |
| RRIRERPPRLPRPRPRPAYGPRP | -0.108 |
| RRIRARPPRLPRPRPRPQVTPRP | 0.356 |
| RRIRGRPPRLPRPRPRPMSLPRP | -0.0288 |
| RRIRIRPPRLPRPRPRPETKPRP | 0.0233 |
| RRIRDRPPRLPRPRPRPAKEPRP | 0.0263 |
| RRIRRRPPRLPRPRPRPHILPRP | -0.68 |
| RRIRHRPPRLPRPRPRPMCLPRP | -0.0755 |
| RRIRTRPPRLPRPRPRPPKEPRP | -0.000639 |
| RRIRNRPPRLPRPRPRPFIMPRP | -0.889 |
| RRIRRRPPRLPRPRPRPQQVPRP | -0.0275 |
| RRIRTRPPRLPRPRPRPAVCPRP | 0.712 |
| RRIRHRPPRLPRPRPRPQRIPRP | -0.00331 |
| RRIRKRPPRLPRPRPRPWVFPRP | 0.0817 |
| RRIRWRPPRLPRPRPRPPWFPRP | 0.218 |
| RRIRARPPRLPRPRPRPAKHPRP | 0.558 |
